To fix the notation:
B1: GLS3000 S56V (antibody, name in Kabat numbering, V domains shown)
VH: QVQLVESGGGVVQPGRSLRLSCAASGFTFSNAWMHWVRQAPGKGLEWVAQIKAKSNNYATYYAESVKGRFTISRDDSKNSLYLQMNSLKTEDTAVYYCRYVHYGAYYGVDAWGQGTTVTVSS
VL: DIVMTQSPLSLPVTPGEPASISCRSSQSLVHSNRNTYLHWYQQKPGQAPRLLIYKVSNRFVGVPDRFSGSGSGTDFTLKISRVEAEDVGVYYCGQGTQVPYTFGQGTKLEIK
notes: one-arm format as m2
B2: GLS3000 S56W (antibody, name in Kabat numbering, V domains shown)
VH: QVQLVESGGGVVQPGRSLRLSCAASGFTFSNAWMHWVRQAPGKGLEWVAQIKAKSNNYATYYAESVKGRFTISRDDSKNSLYLQMNSLKTEDTAVYYCRYVHYGAYYGVDAWGQGTTVTVSS
VL: DIVMTQSPLSLPVTPGEPASISCRSSQSLVHSNRNTYLHWYQQKPGQAPRLLIYKVSNRFWGVPDRFSGSGSGTDFTLKISRVEAEDVGVYYCGQGTQVPYTFGQGTKLEIK
notes: one-arm format as m2
B3: GLS3000 T31E (antibody, name in Kabat numbering, V domains shown)
VH: QVQLVESGGGVVQPGRSLRLSCAASGFTFSNAWMHWVRQAPGKGLEWVAQIKAKSNNYATYYAESVKGRFTISRDDSKNSLYLQMNSLKTEDTAVYYCRYVHYGAYYGVDAWGQGTTVTVSS
VL: DIVMTQSPLSLPVTPGEPASISCRSSQSLVHSNRNEYLHWYQQKPGQAPRLLIYKVSNRFSGVPDRFSGSGSGTDFTLKISRVEAEDVGVYYCGQGTQVPYTFGQGTKLEIK
notes: one-arm format as m2
B4: GLS3000 S56Y (antibody, name in Kabat numbering, V domains shown)
VH: QVQLVESGGGVVQPGRSLRLSCAASGFTFSNAWMHWVRQAPGKGLEWVAQIKAKSNNYATYYAESVKGRFTISRDDSKNSLYLQMNSLKTEDTAVYYCRYVHYGAYYGVDAWGQGTTVTVSS
VL: DIVMTQSPLSLPVTPGEPASISCRSSQSLVHSNRNTYLHWYQQKPGQAPRLLIYKVSNRFYGVPDRFSGSGSGTDFTLKISRVEAEDVGVYYCGQGTQVPYTFGQGTKLEIK
notes: one-arm format as m2
B5: GLS3000 T31K (antibody, name in Kabat numbering, V domains shown)
VH: QVQLVESGGGVVQPGRSLRLSCAASGFTFSNAWMHWVRQAPGKGLEWVAQIKAKSNNYATYYAESVKGRFTISRDDSKNSLYLQMNSLKTEDTAVYYCRYVHYGAYYGVDAWGQGTTVTVSS
VL: DIVMTQSPLSLPVTPGEPASISCRSSQSLVHSNRNKYLHWYQQKPGQAPRLLIYKVSNRFSGVPDRFSGSGSGTDFTLKISRVEAEDVGVYYCGQGTQVPYTFGQGTKLEIK
notes: one-arm format as m2
B6: GLS3000 T31D (antibody, name in Kabat numbering, V domains shown)
VH: QVQLVESGGGVVQPGRSLRLSCAASGFTFSNAWMHWVRQAPGKGLEWVAQIKAKSNNYATYYAESVKGRFTISRDDSKNSLYLQMNSLKTEDTAVYYCRYVHYGAYYGVDAWGQGTTVTVSS
VL: DIVMTQSPLSLPVTPGEPASISCRSSQSLVHSNRNDYLHWYQQKPGQAPRLLIYKVSNRFSGVPDRFSGSGSGTDFTLKISRVEAEDVGVYYCGQGTQVPYTFGQGTKLEIK
notes: one-arm format as m2
B7: GLS3000 T31I (antibody, name in Kabat numbering, V domains shown)
VH: QVQLVESGGGVVQPGRSLRLSCAASGFTFSNAWMHWVRQAPGKGLEWVAQIKAKSNNYATYYAESVKGRFTISRDDSKNSLYLQMNSLKTEDTAVYYCRYVHYGAYYGVDAWGQGTTVTVSS
VL: DIVMTQSPLSLPVTPGEPASISCRSSQSLVHSNRNIYLHWYQQKPGQAPRLLIYKVSNRFSGVPDRFSGSGSGTDFTLKISRVEAEDVGVYYCGQGTQVPYTFGQGTKLEIK
notes: one-arm format as m2
B8: GLS3000 T31N (antibody, name in Kabat numbering, V domains shown)
VH: QVQLVESGGGVVQPGRSLRLSCAASGFTFSNAWMHWVRQAPGKGLEWVAQIKAKSNNYATYYAESVKGRFTISRDDSKNSLYLQMNSLKTEDTAVYYCRYVHYGAYYGVDAWGQGTTVTVSS
VL: DIVMTQSPLSLPVTPGEPASISCRSSQSLVHSNRNNYLHWYQQKPGQAPRLLIYKVSNRFSGVPDRFSGSGSGTDFTLKISRVEAEDVGVYYCGQGTQVPYTFGQGTKLEIK
notes: one-arm format as m2

This is an account of results in US20220040297A1 (Chugai, published 2022).

This assay deals with CD3ε homodimer protein (human, UniProt P07766 23-126, limits assumed). The assay is described as follows: SPR, immobilized CD3ε homodimer.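 Note: biacore T200 surface plasmon resonance at 25 °C, antibody variants flowed as analytes over amine-coupled CD3ε homodimer on a CM4 chip, variant binding amount divided by that of GLS3000 antibody.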
Chain of CD3ε homodimer protein (P07766 23-126 limits assumed): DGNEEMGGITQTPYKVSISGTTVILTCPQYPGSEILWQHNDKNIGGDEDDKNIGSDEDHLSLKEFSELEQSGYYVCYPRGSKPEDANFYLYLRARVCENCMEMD
In the case of B1, the “ratio of amounts bound (vs GLS3000)” value was 0.95.

With B2, the “ratio of amounts bound (vs GLS3000)” value was determined as 1.38.

As to B3, the “ratio of amounts bound (vs GLS3000)” value was 0.49.

B4: the “ratio of amounts bound (vs GLS3000)” value was 1.46.

For B5, the “ratio of amounts bound (vs GLS3000)” value came out at 1.04.

Take B6: the “ratio of amounts bound (vs GLS3000)” value is 0.23.

Consider B7, for which the “ratio of amounts bound (vs GLS3000)” value was 0.97.

Take B8: the “ratio of amounts bound (vs GLS3000)” value was determined as 0.32.
